Results from article PMC5887453 (Nucleic Acids Research, 2018).

Experiments:
Assay in all cases: native gel or EMSA
PhoEF-2 L214S/V216S = target: T1, PhoEF-2 L214S/V216S (Pyrococcus horikoshii, UniProt O59521 1-732, L214S | V216S)
T1 sequence (looked up): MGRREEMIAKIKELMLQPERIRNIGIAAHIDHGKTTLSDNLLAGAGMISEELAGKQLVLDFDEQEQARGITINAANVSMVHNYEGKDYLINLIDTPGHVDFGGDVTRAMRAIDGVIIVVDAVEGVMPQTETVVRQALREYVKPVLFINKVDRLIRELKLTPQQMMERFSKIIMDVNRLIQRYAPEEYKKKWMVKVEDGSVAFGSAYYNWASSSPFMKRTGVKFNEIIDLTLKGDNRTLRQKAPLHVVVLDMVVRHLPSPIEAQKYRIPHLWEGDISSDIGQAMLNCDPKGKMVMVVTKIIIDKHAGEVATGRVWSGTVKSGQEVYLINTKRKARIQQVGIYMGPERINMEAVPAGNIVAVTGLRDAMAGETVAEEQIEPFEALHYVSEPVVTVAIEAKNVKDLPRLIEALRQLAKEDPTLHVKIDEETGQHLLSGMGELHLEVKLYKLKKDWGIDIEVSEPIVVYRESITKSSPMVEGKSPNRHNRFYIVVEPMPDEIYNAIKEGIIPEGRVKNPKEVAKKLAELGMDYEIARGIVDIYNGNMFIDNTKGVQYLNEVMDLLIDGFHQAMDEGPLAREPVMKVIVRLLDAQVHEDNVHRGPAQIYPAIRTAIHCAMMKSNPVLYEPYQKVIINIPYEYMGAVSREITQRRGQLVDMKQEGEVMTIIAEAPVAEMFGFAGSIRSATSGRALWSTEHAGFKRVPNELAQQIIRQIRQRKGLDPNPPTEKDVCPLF

[1] = target: T2, Pyrococcus horikoshii elongation factor 2 (PhoEF-2), wild type (Pyrococcus horikoshii, UniProt O59521 1-732)
T2 sequence (looked up): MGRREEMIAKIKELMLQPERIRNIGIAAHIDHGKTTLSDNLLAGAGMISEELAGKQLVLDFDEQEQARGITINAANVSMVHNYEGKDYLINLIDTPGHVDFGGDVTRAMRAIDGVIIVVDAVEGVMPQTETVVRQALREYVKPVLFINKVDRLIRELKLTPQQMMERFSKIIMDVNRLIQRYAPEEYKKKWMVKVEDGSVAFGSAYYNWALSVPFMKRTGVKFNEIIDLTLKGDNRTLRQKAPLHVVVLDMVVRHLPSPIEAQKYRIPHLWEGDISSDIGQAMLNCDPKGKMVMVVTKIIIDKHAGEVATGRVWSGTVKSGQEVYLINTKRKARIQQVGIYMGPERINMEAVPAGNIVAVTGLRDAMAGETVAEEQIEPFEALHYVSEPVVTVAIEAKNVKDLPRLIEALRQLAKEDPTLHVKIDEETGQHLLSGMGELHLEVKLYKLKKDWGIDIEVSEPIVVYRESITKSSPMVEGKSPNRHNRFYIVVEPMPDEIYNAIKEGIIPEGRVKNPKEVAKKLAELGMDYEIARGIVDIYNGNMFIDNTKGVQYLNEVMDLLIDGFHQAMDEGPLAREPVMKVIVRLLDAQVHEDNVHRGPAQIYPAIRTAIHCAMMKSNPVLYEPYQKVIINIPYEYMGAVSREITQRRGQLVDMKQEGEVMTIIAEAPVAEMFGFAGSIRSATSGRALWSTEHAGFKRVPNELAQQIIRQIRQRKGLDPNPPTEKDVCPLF

PhoEF-2 V198S = target: T3, PhoEF-2 V198S (Pyrococcus horikoshii, UniProt O59521 1-732, V198S)
T3 sequence (looked up): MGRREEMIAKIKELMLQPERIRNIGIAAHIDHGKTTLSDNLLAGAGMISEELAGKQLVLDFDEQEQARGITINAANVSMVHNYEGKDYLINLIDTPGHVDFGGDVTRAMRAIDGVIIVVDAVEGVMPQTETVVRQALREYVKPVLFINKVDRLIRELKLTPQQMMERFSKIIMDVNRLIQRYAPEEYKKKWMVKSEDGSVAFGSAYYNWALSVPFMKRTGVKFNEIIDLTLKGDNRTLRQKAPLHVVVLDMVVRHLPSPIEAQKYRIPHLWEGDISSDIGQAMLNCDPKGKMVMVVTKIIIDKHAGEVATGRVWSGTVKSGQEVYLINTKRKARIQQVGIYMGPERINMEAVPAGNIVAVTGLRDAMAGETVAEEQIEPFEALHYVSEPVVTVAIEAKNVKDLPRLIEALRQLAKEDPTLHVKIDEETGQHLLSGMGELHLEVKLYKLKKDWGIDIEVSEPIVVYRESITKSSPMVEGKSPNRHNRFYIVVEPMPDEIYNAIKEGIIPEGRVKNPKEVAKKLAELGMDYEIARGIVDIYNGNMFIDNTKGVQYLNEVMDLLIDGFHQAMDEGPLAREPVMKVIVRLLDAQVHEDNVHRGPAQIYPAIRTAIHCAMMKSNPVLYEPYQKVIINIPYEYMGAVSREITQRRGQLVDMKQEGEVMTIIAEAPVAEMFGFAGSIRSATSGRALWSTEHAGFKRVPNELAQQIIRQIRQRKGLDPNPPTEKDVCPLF

binding result (PhoEF-2 L214S/V216S): binds
binding result [1]: binds
binding result (PhoEF-2 V198S): binds
B1: Pyrococcus horikoshii ribosomal stalk protein P1 (natural protein, UniProt O57705 1-108, looked up)
chain: MEYVYAALLLHSVGKEINEENLKAVLQAAGVEPEEARIKALVAALEGVNIDEVIEKAAMPVAVAAAPAAAPAEAGGEEKKEEEKKEEEEKEEEVSEEEALAGLSALFG
modifications: in the SPR only: biotin on amino groups via a PEG linker (EZ-Link NHS-PEG4-Biotin)
